Earlier results in paper PMC9412859 (World Journal of Diabetes, 2022).

Settings: rats, oral

For “Exendin-4: GLP1-RA, here released from enteric-coated capsule containing pH responsive NPs”, the “time of maximum plasma concentration” value (enteric-coated capsule containing pH responsive NPs) is listed as 5 h.

For “exenatide: GLP1-RA, here delivered orally in functionalised nanoparticles”, the “plasma exenatide level versus subcutaneous exenatide solution” value (functionalised NPs) is given as “not significantly different”.
